Assay results as given in US20220396620A1 (Takeda / Millennium, published 2022).
Substitutions are numbered along the chain they refer to.

B1: M7-H8 humanized anti-CB1 antibody (antibody, human IgG1, kappa, L234A L235A, V domains shown)
VH: QVQLVQSGAEVKKPGASVKLSCKASSYTFTRYWMNWVRQAPGQGLEWIGMIDPYDSETHYNQKFQGRATLTVDTSTSTAYMELSSLRSEDTAVYFCARSQPRYYAMDYWGQGTTVTVSS
VL: DIQMTQSPSSLSASLGDRVTLTCRASQEISGFLSWLQLKPGKTIKRLIYAASSLDSGVPSRFSGSWSGTDYTLTISSLQPEDFADYYCLQYSSYPYTFGGGTKLEIKR
B2: M7-H11 humanized anti-CB1 antibody (antibody, human IgG1, kappa, L234A L235A, V domains shown)
VH: B1 VH with L20V, I48M, M50I, H59S, N61A, A68V, L70M, V72R, A79V, F95Y
VL: B1 VL
B3: M7-H15 humanized anti-CB1 antibody (antibody, human IgG1, kappa, L234A L235A, V domains shown)
VH: QVQLVQSGAEVKKPGASVKVSCKASSYTFTRYWMNWVKQRPGEGLEWMGMIDPYDSETHYNQKFQGKVTMTVDKSSSTVYMELSSLRSEDTAVYFCARSQPRYYAMDYWGQGTTVTVSS
VL: B1 VL with L15V, T43A
B4: M7-H10 humanized anti-CB1 antibody (antibody, human IgG1, kappa, L234A L235A, V domains shown)
VH: B3 VH
VL: B1 VL
B5: M7-H12 humanized anti-CB1 antibody (antibody, human IgG1, kappa, L234A L235A)
heavy: not shown
light: DIQMTQSPSSLSASVGDRVTLTCRASQEISGFLSWLQLKPGKAIKRLIYAASSLDSGVPSRFSGSWSGTDYTLTISSLQPEDFADYYCLQYSSYPYTFGGGTKLEIKRTVAAPSVFIFPPSDEQLKSGTASVVCLLNNFYPREAKVQWKVDNALQSGNSQESVTEQDSKDSTYSLSSTLTLSKADYEKHKVYACEVTHQGLSSPVTKSFNRGEC
B6: M7-H9 humanized anti-CB1 antibody (antibody, human IgG1, kappa, L234A L235A, V domains shown)
VH: B1 VH with L20V, I48M, A68V, L70M, V72R, A79V, F95Y
VL: B1 VL
B7: M7-H16 humanized anti-CB1 antibody (antibody, human IgG1, kappa, L234A L235A, V domains shown)
VH: B1 VH with L20V, I48M, M50I, H59S, N61A, A68V, L70M, V72R, A79V, F95Y
VL: B1 VL with L15V, T43A
B8: M7-H13 humanized anti-CB1 antibody (antibody, human IgG1, kappa, L234A L235A, V domains shown)
VH: B1 VH
VL: B1 VL with L15V, T43A
B9: M7-H14 humanized anti-CB1 antibody (antibody, human IgG1, kappa, L234A L235A, V domains shown)
VH: B1 VH with L20V, I48M, A68V, L70M, V72R, A79V, F95Y
VL: B1 VL with L15V, T43A
B10: M2 mouse anti-huCB-1 antibody (antibody, V domains shown)
VH: EVQLQQSGPELVKPGTSVKISCKASGYTFTDYNMHWVKLGKSLEWIGYFYPDDGGSGYNQKFKGKATLTIDKSSSTAYMELHSLTSEDSAVYYCARGYGNSWGTYWGQGTLVTVSA
VL: EIVLTQSPTTMAASPGEKITITCSASSRISSNYLYWYQQKPGFSPKLLIYRTSNLASGVPARFSGSGSGTSYSLTIGTMEAEDVATYYCQQGSSIPYTFGGGTKLEIK
B11: M6 mouse anti-huCB-1 antibody (antibody, V domains shown)
VH: EVQLQQSGPELVKPGASVKISCKASGYTFTDYNLHWVKHGKSLEWIGYIYPYDGDTGYKQKFKGKATLTADKSSSTAYMELRSLTCEDSAVYYCARGYGNSWGAYWGQGTLVTVSA
VL: B10 VL with S26T, R28S, Y35H
B12: M5 mouse anti-huCB-1 antibody (antibody, V domains shown)
VH: QVHLQQSGAELVRPGSSVKISCKASGYEFSYYWMNWVKQRPGQGHEWIGQIYPGDGDTNYNGKFKGKATLTADKSSSTAYMQLSSLTSEDSAVYFCARGREAAWFAYWGQGTLVTVSA
VL: DIVLAQSPASLAVSLGQRATISCRASQSVSSFRYSYLHWYQQKPGQPPRLLIKYASNLESGVPARFSGSGSGTDFTLNIHPVEEEDTATYFCQHSWEIPFTFGSGTKLEIKR
notes: The humanized M5-H1 and M5-H2 carry the CDRs of the un-numbered VL, so that one may be the functional light chain
B13: M1 mouse anti-huCB-1 antibody (antibody, V domains shown)
VH: QVQLQQSGAELVRPGVSVKISCKGSGYTFTDHALHWVKQSQARSLEWIGIISTYYGDATYNQKFKGKATMTVDKSSSTAYMELARLTSEDSAFYYCARGGLYYGTNYRAMDYWGQGTSVTVSS
VL: DIVMTQSQKFMSTSVGDRVSVTCKASQNVGSNVAWYQQKPGQSPKALIYSASYRYSGVPDRFTGSGSGTDFTLTISNVQSEDLAEYFCQQYNNYPFTFGSGTKLEIK
B14: M7 mouse anti-huCB-1 antibody (antibody, V domains shown)
VH: EVQLQQPGAELVRPGASVKLSCKASSYTFTRYWMNWVKQRPEEGLEWIGMIDPYDSETHYNQKFKDKAILTVDKSSSTAYMQLSTLTSEDSAVYFCARSQPRYYAMDYWGQGTSVTVSS
VL: DIQMSQSPSSLSASLGERVSLTCRASQEISGFLSWLQLRPDGTIKRLIYAASSLDSGVPKRFRGSWSGSDYSLTISSLESEDFADYYCLQYSSYPYTFGGGTKLEIK
B15: M4 mouse anti-huCB-1 antibody (antibody, V domains shown)
VH: QVQLQQSGAELVRPGSSVKISCKASGYEFNYYWMNWVKQRPGQGLEWIGQIYPGDGDINYNGKFKGKATLTSDKSSSTVYMQLSSLTSEDSAVYFCSRSKGNPFAYWGQGTLVTVSA
VL: DIQMTQTTSSLSASLGDSVTISCRASQGIRNYLNWYQQKPDGTVKLLIYYTSRLHSGVPPRFSGSGSGTDYSLTISNLEQEDLATYFCQQGNTLPYTFGGGTKLEIK
B16: M8 mouse anti-huCB-1 antibody (antibody, V domains shown)
VH: QVQLQQPGAELVKPGASVKLSCKASGYTFTDYWMHWVKQRPGHGLEWIGEIYPSSGRANYNGNFKRKATLTVDKSSSTAYMQLSSLTSEDSAVYYCARSRGNYLPYWGHGTPVTVSA
VL: QIVLTQSPAIMSASLGERVTMTCTAGSTVSSSYLHWYQQRPGSSPKLWIYGTSNLASGVPARFSGSGSGTSYSLTISSMEAEDAATYYCHQYHRSPPTFGGGTKLEIK
B17: M3 mouse anti-huCB-1 antibody (antibody, V domains shown)
VH: QVQLQQSGPELVRPGVSVKISCKGSGYEFTDYALHWVKQSHAETLEWIGLITTYYGDTNYNQKFKGKATMTVDKSSSTAYMELARLTSEDSAIYYCARGGYYYGTDYRYFDVWGAGTTVTVSS
VL: DILLTQSPAILSVSPGERVSFSCRASQSIGTNIHWYQQRPNGSPRLLIKYASESISGIPSRFSGSGSGSDFTLSINSVESEDIADYYCQQSITWPLTFGAGTKLELK

target: T1, human cannabinoid receptor type 1 (CB1) (human, UniProt P21554 1-472); test: flow cytometry, single point at 30 ug/mL antibody, signal on CHO-huCB-1 cells relative to CHO parental cells
T1 construct: DiscoverX cAMP Hunter CHO-K1 CNR1 Gi cells for cAMP and pERK assays; also called huCB1; huCB-1
T1 sequence (P21554 whole entry): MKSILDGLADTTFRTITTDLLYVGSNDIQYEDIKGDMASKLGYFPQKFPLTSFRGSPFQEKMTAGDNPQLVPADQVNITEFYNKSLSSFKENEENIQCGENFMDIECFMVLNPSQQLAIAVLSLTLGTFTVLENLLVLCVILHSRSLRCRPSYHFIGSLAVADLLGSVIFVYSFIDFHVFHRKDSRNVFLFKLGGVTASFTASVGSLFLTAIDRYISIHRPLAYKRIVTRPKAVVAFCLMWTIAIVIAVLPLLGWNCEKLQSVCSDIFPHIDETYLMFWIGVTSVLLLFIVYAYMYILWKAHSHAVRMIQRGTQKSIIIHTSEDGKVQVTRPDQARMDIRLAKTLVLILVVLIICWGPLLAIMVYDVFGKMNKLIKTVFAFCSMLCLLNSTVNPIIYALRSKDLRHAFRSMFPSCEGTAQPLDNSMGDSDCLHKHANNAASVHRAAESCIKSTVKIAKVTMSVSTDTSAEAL

B1: binds.
B2: binds.
B3: binds.
B4: binds.
B5: binds.
B6: binds.
B7: binds.
B8: binds.
B9: binds.

target: T1, human cannabinoid receptor type 1 (CB1); test: cell-based or functional assay

First: B10
Second: B11
The “Mean P-ERK (% inhibition)” value of the first is higher: 59 % inhibition for the first, 42 % inhibition for the second.

Compared with B12, B13 is lower in “Mean P-ERK (% inhibition)” value: 101 % inhibition for the first, 68 % inhibition for the second.

Compared with B14, B15 is lower in “Mean P-ERK (% inhibition)” value: 95 % inhibition for the first, 70 % inhibition for the second.

First: B16
Second: B17
The “Mean P-ERK (% inhibition)” value of the first is higher: 64 % inhibition for the first, 59 % inhibition for the second.

Compared with B10, B11 is lower in “Mean cAMP (% Amgen)” value: 49 % Amgen for the first, 21 % Amgen for the second.

Compared with B12, B13 is higher in “Mean cAMP (% Amgen)” value: 61 % Amgen for the first, 75 % Amgen for the second.

First: B14
Second: B15
The “Mean cAMP (% Amgen)” value of the first is higher: 61 % Amgen for the first, 41 % Amgen for the second.

Compared with B16, B17 is higher in “Mean cAMP (% Amgen)” value: 29 % Amgen for the first, 71 % Amgen for the second.

Going from B10 to B11, the “P-ERK IC50 (nM) Data Set 1” value falls from 219 nM to 144 nM (1.5-fold).

B12 and B13 are within 1.5-fold of each other in “P-ERK IC50 (nM) Data Set 1” value: 191 nM for the first, 163 nM for the second.

B14 and B15 are within 1.5-fold of each other in “P-ERK IC50 (nM) Data Set 1” value: 117 nM for the first, 97 nM for the second.

Going from B16 to B17, the “P-ERK IC50 (nM) Data Set 1” value rises from 36 nM to 296 nM (8.2-fold).

B10 and B11 are within 1.5-fold of each other in “P-ERK IC50 (nM) Data Set 2” value: 211 nM for the first, 300 nM for the second.

Going from B12 to B13, the “P-ERK IC50 (nM) Data Set 2” value rises from 50 nM to 165 nM (3.3-fold).

Compared with B14, B15 is 5.2-fold higher in “P-ERK IC50 (nM) Data Set 2” value: 170 nM for the first, 890 nM for the second.

First: B16
Second: B17
The “P-ERK IC50 (nM) Data Set 2” value of the first is 11-fold lower: 47 nM for the first, 534 nM for the second.

B10 and B11 are within 1.5-fold of each other in “cAMP EC50 (nM) Data Set 1” value: 380 nM for the first, 310 nM for the second.

Going from B12 to B13, the “cAMP EC50 (nM) Data Set 1” value falls from 91 nM to 43 nM (2.1-fold).

Going from B14 to B15, the “cAMP EC50 (nM) Data Set 1” value rises from 78 nM to 180 nM (2.3-fold).

Going from B16 to B17, the “cAMP EC50 (nM) Data Set 1” value rises from 96 nM to 290 nM (3-fold).

B10 and B11 are within 1.5-fold of each other in “cAMP EC50 (nM) Data Set 2” value: 340 nM for the first, 290 nM for the second.

B12 and B13 are the same in “cAMP EC50 (nM) Data Set 2” value: 170 nM for the first, 170 nM for the second.

Going from B14 to B15, the “cAMP EC50 (nM) Data Set 2” value rises from 120 nM to 320 nM (2.7-fold).

Compared with B16, B17 is 1.5-fold higher in “cAMP EC50 (nM) Data Set 2” value: 190 nM for the first, 290 nM for the second.

Going from B10 to B11, the “cAMP EC50 (nM) Data Set 3” value rises from 270 nM to 640 nM (2.4-fold).

B12 and B13 are within 1.5-fold of each other in “cAMP EC50 (nM) Data Set 3” value: 170 nM for the first, 150 nM for the second.

Going from B14 to B15, the “cAMP EC50 (nM) Data Set 3” value rises from 120 nM to 430 nM (3.6-fold).

B16 and B17 are within 1.5-fold of each other in “cAMP EC50 (nM) Data Set 3” value: 370 nM for the first, 330 nM for the second.

target: T2, mouse CB-1 (mouse, UniProt P47746 1-473); test: flow cytometry on CHO-Mouse CB1 cells, 3-fold antibody titration from 200 nM
T2 construct: whole, on cells; also called moCB1; moCB1-CHO cells
T2 sequence (P47746 whole entry): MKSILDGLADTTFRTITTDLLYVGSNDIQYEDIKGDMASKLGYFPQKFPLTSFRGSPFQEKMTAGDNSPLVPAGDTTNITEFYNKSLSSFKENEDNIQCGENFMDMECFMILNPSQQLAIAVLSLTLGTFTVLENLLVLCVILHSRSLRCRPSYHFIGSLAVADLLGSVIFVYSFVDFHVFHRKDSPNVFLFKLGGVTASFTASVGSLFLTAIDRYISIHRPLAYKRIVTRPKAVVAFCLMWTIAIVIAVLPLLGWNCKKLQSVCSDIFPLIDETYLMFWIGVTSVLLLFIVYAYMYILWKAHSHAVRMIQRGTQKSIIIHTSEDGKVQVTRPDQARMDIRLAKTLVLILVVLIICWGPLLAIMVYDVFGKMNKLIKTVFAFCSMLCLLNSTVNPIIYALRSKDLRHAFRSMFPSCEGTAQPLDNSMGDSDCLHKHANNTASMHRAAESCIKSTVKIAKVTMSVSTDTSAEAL
Description: (§1) Antibody binding was tested in a fluorescence activated cell sorting (FACS)-based assay for the ability of the mouse anti-CB1 antibodies to bind parental CHO cells, human CB-1 overexpressing CHO cells and mouse CB-1 overexpressing CHO cells to obtain binding curves and EC50 values. The three cell lines were harvested, washed and dispensed at 1×10⁵ cells per well of a v-bottomed 96-well polycarbonate FACS plates (Corning, Corning, N.Y., Cat. No. 3357) in 50 μl of FACS buffer (1×PBS/2 mM EDTA and 1% FBS (ThermoFisher Scientific, Anaheim, Calif.; Cat. No. 10438-026). Serial dilutions of the antibodies were prepared at 2× concentrations starting at 200 nM and serially diluted 3-fold. The titrated antibodies were added to the plates containing the three different cell lines (parental, human and mouse CB-1 CHO cells) and incubated at 4° C. for 1 hour. The plates were washed 3× with FACS buffer. […] None of the eight functional antibodies tested were mouse cross reactive (FIG. 3).

B12: no binding (tested: 200 nM).
B13: no binding (tested: 200 nM).
B14: no binding (tested: 200 nM).
B15: no binding (tested: 200 nM).
B16: no binding (tested: 200 nM).
B17: no binding (tested: 200 nM).

target: T1, human cannabinoid receptor type 1 (CB1); test: FACS, titration on CB1 over-expressing CHO cells
Description: as §1

B10 and B11 are within 1.5-fold of each other in EC50: 34.7 nM for the first, 43.5 nM for the second.

B12 and B13 are within 1.5-fold of each other in EC50: 20.2 nM for the first, 15.7 nM for the second.

B14 and B15 are within 1.5-fold of each other in EC50: 13 nM for the first, 19.2 nM for the second.

First: B16
Second: B17
The EC50 of the first is 5.8-fold lower: 10.7 nM for the first, 61.6 nM for the second.
